# Reference: article PMC10316081
# How the values were obtained:
# [1] = target: Rag GTPase heterodimer (RagA-RagC), wild type (human) (UniProt Q7L523)
# [2] = target: Rag GTPase heterodimer (RagA-RagC), wild type (human) (UniProt Q7L523); remark: listed apart in the source
# RagA-RagC(D201A) (human) = RagA-RagC(D201A) (human) (UniProt Q7L523)
# [3] = target: RagA-RagC(D201A, D205A) (human) (UniProt Q7L523)
# RagA-RagC(D205A) (human) = RagA-RagC(D205A) (human) (UniProt Q7L523)
# RagA-RagC(D201R) (human) = RagA-RagC(D201R) (human) (UniProt Q7L523)
# [4] = target: RagA-RagC(D201R, D205K) (human) (UniProt Q7L523)
# RagA-RagC(D205K) (human) = RagA-RagC(D205K) (human) (UniProt Q7L523)
Substance,kcat of GATOR1-stimulated single turnover GTP hydrolysis by the Rag GTPase heterodimer (singly loaded with GTP) [1],kcat of GATOR1-stimulated multiple turnover GTP hydrolysis by the Rag GTPase heterodimer (dual-loaded with GTP) [2],"kcat/KM of GATOR1[Depdc5(Y775A)]-stimulated multiple turnover GTP hydrolysis, fold decrease against wild-type Rag GTPases (fold decrease) (RagA-RagC(D201A) (human))","kcat/KM of GATOR1[Depdc5(Y775A)]-stimulated multiple turnover GTP hydrolysis, fold decrease against wild-type Rag GTPases (fold decrease) [3]","kcat/KM of GATOR1[Depdc5(Y775A)]-stimulated multiple turnover GTP hydrolysis, fold decrease against wild-type Rag GTPases (fold decrease) (RagA-RagC(D205A) (human))","kcat/KM of GATOR1[Depdc5(Y775A)]-stimulated multiple turnover GTP hydrolysis, fold decrease against wild-type Rag GTPases (fold decrease) (RagA-RagC(D201R) (human))","kcat/KM of GATOR1[Depdc5(Y775A)]-stimulated multiple turnover GTP hydrolysis, fold decrease against wild-type Rag GTPases (fold decrease) [4]","kcat/KM of GATOR1[Depdc5(Y775A)]-stimulated multiple turnover GTP hydrolysis, fold decrease against wild-type Rag GTPases (fold decrease) (RagA-RagC(D205K) (human))","KM of GATOR1-stimulated multiple turnover GTP hydrolysis, fold increase against GATOR1[Depdc5(Y775A)] (fold increase) [2]","kcat of GATOR1-stimulated multiple turnover GTP hydrolysis, fold decrease against GATOR1[Depdc5(Y775A)] (fold decrease) [2]","kcat/KM of GATOR1-stimulated multiple turnover GTP hydrolysis, fold decrease against GATOR1[Depdc5(Y775A)] (fold decrease) [2]"
GATOR1[Depdc5(Y775A)] (from UniProt O75140 1-1603; Q8WTW4 1-380; Q12980 1-569) (complex),0.000267 s⁻¹,0.00183 s⁻¹,2,7,4,7,80,22,,,
"GATOR1[Depdc5(Y775A, R1407D)] (from UniProt O75140 1-1603; Q8WTW4 1-380; Q12980 1-569) (complex)",0.00015 s⁻¹,,,,,,,,8,8,64
